For one experiment, the target named is T1, MERS-CoV spike protein (MERS-CoV, UniProt K9N5Q8 18-1291).
T1 sequence: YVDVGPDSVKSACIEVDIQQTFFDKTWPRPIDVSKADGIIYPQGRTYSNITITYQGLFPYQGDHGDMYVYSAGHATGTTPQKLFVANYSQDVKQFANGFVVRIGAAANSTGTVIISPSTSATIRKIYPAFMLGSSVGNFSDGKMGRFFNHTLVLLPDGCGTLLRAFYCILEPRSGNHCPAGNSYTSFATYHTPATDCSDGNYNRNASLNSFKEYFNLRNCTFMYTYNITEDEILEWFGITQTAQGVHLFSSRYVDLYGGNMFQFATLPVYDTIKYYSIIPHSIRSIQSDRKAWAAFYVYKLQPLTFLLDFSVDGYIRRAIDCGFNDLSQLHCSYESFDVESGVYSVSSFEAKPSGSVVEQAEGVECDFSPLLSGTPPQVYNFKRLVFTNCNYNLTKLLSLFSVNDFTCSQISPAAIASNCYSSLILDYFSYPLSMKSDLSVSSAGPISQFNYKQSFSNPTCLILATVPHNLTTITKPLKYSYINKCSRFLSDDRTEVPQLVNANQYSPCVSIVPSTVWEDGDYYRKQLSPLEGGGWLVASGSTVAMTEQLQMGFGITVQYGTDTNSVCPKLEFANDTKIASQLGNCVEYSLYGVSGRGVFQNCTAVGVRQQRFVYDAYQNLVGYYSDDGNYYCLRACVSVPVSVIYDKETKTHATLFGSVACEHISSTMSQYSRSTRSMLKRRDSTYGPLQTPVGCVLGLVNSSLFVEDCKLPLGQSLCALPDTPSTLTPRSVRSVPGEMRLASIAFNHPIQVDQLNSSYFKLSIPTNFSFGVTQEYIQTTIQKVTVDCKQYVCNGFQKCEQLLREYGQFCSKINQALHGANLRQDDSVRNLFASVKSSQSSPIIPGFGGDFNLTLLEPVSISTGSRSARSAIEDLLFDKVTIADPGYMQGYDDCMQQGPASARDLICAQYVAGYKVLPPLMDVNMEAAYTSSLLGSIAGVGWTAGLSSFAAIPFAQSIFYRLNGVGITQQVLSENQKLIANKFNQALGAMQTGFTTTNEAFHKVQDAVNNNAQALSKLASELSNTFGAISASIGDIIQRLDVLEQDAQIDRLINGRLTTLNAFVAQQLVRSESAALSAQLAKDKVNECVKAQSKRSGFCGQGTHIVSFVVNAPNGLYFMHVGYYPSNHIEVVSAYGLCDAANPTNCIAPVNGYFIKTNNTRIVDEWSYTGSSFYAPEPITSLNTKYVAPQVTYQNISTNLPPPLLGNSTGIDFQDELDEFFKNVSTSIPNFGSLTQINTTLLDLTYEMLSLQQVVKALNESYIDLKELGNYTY
The experiment can be described thus: bead flow cytometry, AUC minus CD4. (A flow cytometer gives signals particle by particle.)

Experiment [1] has as its target T2, HCoV-HKU1 spike protein (Sino Biological 40606-V08B) (HCoV-HKU1, UniProt Q0ZME7 13-1295).
T2 sequence: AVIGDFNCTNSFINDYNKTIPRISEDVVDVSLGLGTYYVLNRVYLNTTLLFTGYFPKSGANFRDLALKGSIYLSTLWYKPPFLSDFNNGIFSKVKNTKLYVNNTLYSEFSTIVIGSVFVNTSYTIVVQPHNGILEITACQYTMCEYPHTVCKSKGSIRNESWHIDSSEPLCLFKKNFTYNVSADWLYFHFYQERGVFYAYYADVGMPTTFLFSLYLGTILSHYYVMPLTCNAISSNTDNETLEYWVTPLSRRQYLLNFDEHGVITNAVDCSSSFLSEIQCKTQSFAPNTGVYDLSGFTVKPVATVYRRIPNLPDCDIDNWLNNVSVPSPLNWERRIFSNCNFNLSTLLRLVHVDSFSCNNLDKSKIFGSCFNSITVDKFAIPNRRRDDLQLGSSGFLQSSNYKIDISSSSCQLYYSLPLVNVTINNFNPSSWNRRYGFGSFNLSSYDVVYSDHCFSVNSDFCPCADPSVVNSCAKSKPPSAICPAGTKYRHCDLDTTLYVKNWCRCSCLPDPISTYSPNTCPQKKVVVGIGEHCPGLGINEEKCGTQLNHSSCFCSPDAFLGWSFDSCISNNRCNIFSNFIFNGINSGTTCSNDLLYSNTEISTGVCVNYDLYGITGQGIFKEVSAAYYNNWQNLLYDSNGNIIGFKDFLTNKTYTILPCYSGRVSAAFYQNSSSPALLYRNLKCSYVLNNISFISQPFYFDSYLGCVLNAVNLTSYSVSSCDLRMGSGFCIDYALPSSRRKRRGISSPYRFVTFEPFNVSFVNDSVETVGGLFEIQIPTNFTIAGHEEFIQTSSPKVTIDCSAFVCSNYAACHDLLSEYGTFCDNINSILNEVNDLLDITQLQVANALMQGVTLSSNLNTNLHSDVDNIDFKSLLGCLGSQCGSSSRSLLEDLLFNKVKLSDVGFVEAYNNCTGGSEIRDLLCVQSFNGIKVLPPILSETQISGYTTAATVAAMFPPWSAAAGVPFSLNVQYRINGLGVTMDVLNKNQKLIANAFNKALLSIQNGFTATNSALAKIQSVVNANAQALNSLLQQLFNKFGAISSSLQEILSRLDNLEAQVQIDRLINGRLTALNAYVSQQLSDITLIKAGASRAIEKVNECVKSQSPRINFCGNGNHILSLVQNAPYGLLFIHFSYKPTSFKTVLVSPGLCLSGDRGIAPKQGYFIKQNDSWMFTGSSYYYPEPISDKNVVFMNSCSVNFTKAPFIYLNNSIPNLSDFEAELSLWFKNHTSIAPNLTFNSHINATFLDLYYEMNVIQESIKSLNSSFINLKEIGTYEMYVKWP
The experiment can be described thus: bead flow cytometry, AUC minus CD4.

B1: COV57-38 (antibody, V domains shown)
VH: QVQLVESGGGVVQPGRSLRLSCEASGFNFNNYGMHWVRQAPGKGLEWVAVISYEGSKKYYEDSVRGRFTISRDFSKNTLYLQMNSLRAEDTAVYYCAKANEIFWLGQFKNDALDFWGQGTMVTVSS
VL: QSVLTQPPSASGTPGQRVAVSCSGSSSNIGTNFVNWYQHLPRTAPKLLIYRDNQRPSGVPDRFSGSKSGTSASLAISGLQSEDEADYYCAVWDDSLNGQVFGGGTKVTVL
On to B1, for which the binding result with MERS-CoV spike protein is “no binding (tested: 200 µg/mL)”.

B2: COV44-37 (antibody, V domains shown)
VH: QVQLVQSGAEVKKPGASVMLSCRASGYTFINDYMHWVRQAPGEGFEWMGIINPTGDGTKFAQKFQGRVTMTRDSSTTTVHMELRSLTSGDTAVYFCATGGRQSAFDIWGQGTVVIVSS
VL: DIVMTQSPLSLPVTPGESASISCRSSQSLLQNNGYNYLDWYLQKPGQSPQLLIYLGSYRASGVPDRFSGSGSGTDFTLKISRVEAEDVGVYYCVQAQQAPPLYTFGQGTKLQIK
Consider B2, for which the binding result in experiment [1] was “no binding (tested: 200 µg/mL)”.

B3: COV44-74 (antibody, V domains shown)
VH: QVQLVQSGAEVKKPGASVKVSCKASGYTFSSYYMNWVRQAPGQGLEWVGLISPSAGYTAYAQMFQGRVTMTRDTSTSTVYMELSSLRSEDTAVYYCARVAVAGPNDYWGQGTLVTVSS
VL: EIVLTQSPGTLSLSPGERATLSCRASQSISSSYLAWYQQKPGQAPRLVILAASTRATGIPDRFSGSGSGTDFTLTISRLEPEDFALYYCQHYRSSPPLWTFGQGTKVEIR
On to B3, for which the binding result in experiment [1] is “no binding (tested: 200 µg/mL)”.

B4: COV57-34 (antibody, V domains shown)
VH: QVQLVQSGTEVKKPGSSVKVSCRASGGTLSSYSVSWVRQAPGQGLEWMGRIIPILDKKTYAQKYQGRVTIIADTSTSTVYMELSSLKSDDSAVYYCTTFDYDTSGQRDQHDYWGQGTPVTVSS
VL: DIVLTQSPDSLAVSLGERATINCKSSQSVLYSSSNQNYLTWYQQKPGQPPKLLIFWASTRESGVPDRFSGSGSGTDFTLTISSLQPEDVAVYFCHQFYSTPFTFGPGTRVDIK
B4: in the experiment with MERS-CoV spike protein, the binding result is recorded as “no binding (tested: 200 µg/mL)”.

B5: COV57-13 (antibody, V domains shown)
VH: QVQLVQSGTEVKKPGSSVKVSCRASGGTLSSYSVSWVRQAPGQGLEWMGRIIPILDKKTYAQKYQGRVTIIADTSTSTVYMELSSLKSEDSAVYYCTTFDYDTSGQRDQHDYWGQGTLVTVSS
VL: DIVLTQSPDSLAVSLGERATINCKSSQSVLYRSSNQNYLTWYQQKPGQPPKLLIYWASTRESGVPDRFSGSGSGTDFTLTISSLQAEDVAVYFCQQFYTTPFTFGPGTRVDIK
With B5, the binding result with MERS-CoV spike protein is recorded as “no binding (tested: 200 µg/mL)”.

B6: COV77-09 (antibody, V domains shown)
VH: EVQLVESGGGLVQPGRSLTLSCSGSGFTFGDYSMSWVRQAPGKGLEWLGFIRSQTYGGTTQYAASVQGRFTILRDDSKSIAYLQMNSLKTEDTAVYYCTRNYGVGDYWGQGTLVTVSS
VL: DIVMTQSPASLAVSLGERATIHCRSSLSVLNSSNNKNYLAWYQQKAGQPPKLLMYWASTRESGVPERFSGSGSGTDFTLTISSLEAGDVAVYYCQQYYDKLSLTFGGGTKVEIK
Consider B6, for which the binding result in the experiment with MERS-CoV spike protein is listed as “no binding (tested: 200 µg/mL)”.

B7: COV49-54 (antibody, V domains shown)
VH: EVQLVESGGGLVQPGGSLRLSCAASGFIVSSNYMSWVRQAPGKGLEWVSMIYSGGSTVYADSVKGRFTISRDISKNTLYLQMNSLRAEDTAVYYCALETFDYWGQGTLVTVSS
VL: DIQMTQSPSSLSASVGDRVTITCRASQGITNHLAWYQQKPGKVPKLLIYAASTLQSGVPSRFSGSGYGTDFTLTISSLQPEDVASYYCQKYDSAPRTFGQGTKVEIK
Consider B7, for which the binding result in the experiment with MERS-CoV spike protein is on record as “no binding (tested: 200 µg/mL)”.

For the origin of these results see patent US20250145690A1 (US Dept. of Health and Human Services, published 2025).
